Experiments:
[1] = biological target: MyrNCS-1 His6 (N-terminally myristoylated NCS-1 with a carboxyl terminal His6-tag) (UniProt P62166); assay: micro-batch multi-angle laser light scattering
[2] = biological target: MyrNCS-1 His6 (N-terminally myristoylated NCS-1 with a carboxyl terminal His6-tag) (UniProt P62166); assay: SEC-MALS
[3] = biological target: MyrNCS-1 His6 (N-terminally myristoylated NCS-1 with a carboxyl terminal His6-tag) (UniProt P62166); assay: AUC

Kd [1]: 10 µM
stoichiometry N [2]: 2
Kd [3]: 2 µM
Substance: MyrNCS-1 His6 (N-terminally myristoylated NCS-1 with a carboxyl terminal His6-tag) (from UniProt P62166 1-190) (natural protein)

Source: PMC4383324
